In the supplement of paper PMC7877785:
± gives the uncertainty stated by the source.

Assay: self-splicing fitness, log relative to wild type (ln ratio); higher = more splicing; Tetrahymena group I intron in knt gene, E. coli kanamycin selection, DiMSum; sequences stand for … in CUCUCU…GGAGGGAAAAGUUAUCAGGCAUGCACCUGGUAGCUAGUCUUUAAACCAAUAGAUUGCAUCGGUUUAAAAGGCAAGACCGUCAAAUUGCGGGAAAGGGGUCAACAGCCGUUCAGUACCAAGUCUCAGGGGAAACUUUGAGAUGGCCUUGCAAAGGGUAUGGUAAUAAGCUGACGGACAUGGUCCUAACCACGCAGCCAAGUCCUAAGUCAACAGAUCUUCUGUUGAUAUGGAUGCAGUUCACAGACUAAAUGUCGGUCGGGGAAGAUGUAUUCUUCUCAUAAGAUAUAGUCGGACCUCUCCUUAAUGGGAGCUAGCGGAUGAAGUGAUGCAACACUGGAGCCGCUGGGAACUAAUUUGUAUGCGAAAGUAUAUUGAUUAGUUUUGGAGUACUCGUGGUCG
Method in brief: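 Colonies from six replicate transformations of E. coli BL21(DE3) were pooled and amplicon-sequenced on an Illumina HiSeq 2500. The library placed an intron with all eight P1ex-region nucleotides randomised inside the knt kanamycin-resistance gene on pET-22b(+), and cells grew overnight at 37°C or 30°C on LB agar with or without 25 μg/mL kanamycin (plus 100 μg/mL carbenicillin, 50 μM IPTG, 0.2% rhamnose). Fitness is the DiMSum error-weighted combination of wild-type-normalised replicate fold changes, kanamycin versus none.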

Row | Sequence | self-splicing fitness (ln) (30 °C) | self-splicing fitness (ln) (37 °C)
1 | CGUUAGCAAUAUUACGCACC | -1.94 ± 0.35 | -1.79 ± 0.48
2 | UUUCAGCAAUAUUACGCUGU | -3.52 ± 0.13 | -2.19 ± 0.21
3 | UGCGAGCAAUAUUACGGACU |  | -1.12 ± 0.34
4 | CCUGAGCAAUAUUACGCGUU | -3.53 ± 0.29 | -3.12 ± 0.35
5 | CGGAAGCAAUAUUACGUUCA | -0.293 ± 0.13 | 0.673 ± 0.16
6 | GGAGAGCAAUAUUACGACCU | -1.9 ± 0.24 | -0.666 ± 0.26
7 | CAAAAGCAAUAUUACGUUCU | -1.3 ± 0.14 | -0.926 ± 0.14
8 | UCUUAGCAAUAUUACGCCGU | -2.05 ± 0.16 | -0.32 ± 0.17
9 | UGACAGCAAUAUUACGACGC | -1.83 ± 0.13 | -1.25 ± 0.19
10 | UUGCAGCAAUAUUACGAGUU | -4.24 ± 0.27 | -3.36 ± 0.37
11 | UGACAGCAAUAUUACGCGUU | -3.69 ± 0.16 | -2.75 ± 0.17
12 | UCAUAGCAAUAUUACGGUGC | -2.88 ± 0.21 | -3.08 ± 0.26
13 | CGUCAGCAAUAUUACGCCGC | -2.76 ± 0.32 | -1.05 ± 0.27
14 | CGGCAGCAAUAUUACGCGUA | -1.97 ± 0.29 | -0.576 ± 0.16
15 | AACAAGCAAUAUUACGUCAG | -3.64 ± 0.16 | -2.39 ± 0.14
16 | AGUUAGCAAUAUUACGCCCG | -1.52 ± 0.44 | 0.364 ± 0.45
17 | AGUUAGCAAUAUUACGUGAG | -1.53 ± 0.12 | -1.86 ± 0.14
18 | CUCGAGCAAUAUUACGACCU | -3.42 ± 0.25 | -3.53 ± 0.37
19 | UAGAAGCAAUAUUACGGCGU | -0.78 ± 0.077 | -0.678 ± 0.11
20 | GCAGAGCAAUAUUACGGGCG | -3.2 ± 0.17 | -0.961 ± 0.14
21 | CCAGAGCAAUAUUACGGCCC | -2.44 ± 0.46 | -1.44 ± 0.42
22 | UCUUAGCAAUAUUACGAGGU | -3.29 ± 0.29 | -1.82 ± 0.2
23 | GCGAAGCAAUAUUACGGACG | -0.0597 ± 0.13 | -0.969 ± 0.2
24 | UGCAAGCAAUAUUACGCCUC | -1.98 ± 0.46 | -1.23 ± 0.23

Row | Sequence | self-splicing fitness (ln) (30 °C) | self-splicing fitness (ln) (37 °C)
25 | GCCCAGCAAUAUUACGCCAA | -3.11 ± 0.14 | -1.71 ± 0.1
26 | CCACAGCAAUAUUACGGGUC | -3.86 ± 0.18 | -2.89 ± 0.17
27 | GUGUAGCAAUAUUACGCCCG | -2.51 ± 0.35 | -0.74 ± 0.23
28 | CAAAAGCAAUAUUACGUACG | -0.125 ± 0.061 | 0.143 ± 0.07
29 | CCGAAGCAAUAUUACGAGGA | -4.32 ± 0.39 | -2.54 ± 0.21
30 | GGGAAGCAAUAUUACGGCUU | -2.11 ± 0.2 | -1.41 ± 0.23
31 | GACAAGCAAUAUUACGUGAG | -2.28 ± 0.058 | -1.43 ± 0.06
32 | UCACAGCAAUAUUACGGGAG | -3.75 ± 0.17 | -3.24 ± 0.22
33 | UCGCAGCAAUAUUACGCGUC | -3.42 ± 0.16 | -1.8 ± 0.14
34 | CACUAGCAAUAUUACGACUC | -1.68 ± 0.21 | -2.63 ± 0.36
35 | CCAUAGCAAUAUUACGGAUU | -3.49 ± 0.19 | -2.96 ± 0.24
36 | GAACAGCAAUAUUACGAAUC | -1.76 ± 0.08 | -1.9 ± 0.13
37 | CCCCAGCAAUAUUACGGUUU | -3.85 ± 0.16 | -3.12 ± 0.21
38 | AUCUAGCAAUAUUACGCGGA | -1.69 ± 0.26 | -2.53 ± 0.23
39 | UAGUAGCAAUAUUACGAUAA | -3.02 ± 0.36 | -1.18 ± 0.2
40 | UUUAAGCAAUAUUACGACGA | 0.228 ± 0.089 | 0.29 ± 0.11
41 | CAGAAGCAAUAUUACGGCUG | -2.29 ± 0.19 | -2.49 ± 0.23
42 | CGGUAGCAAUAUUACGACGC | -1.39 ± 0.16 | -0.431 ± 0.2
43 | UGCAAGCAAUAUUACGCAGG | -4.36 ± 0.33 | -3.48 ± 0.37
44 | UCUUAGCAAUAUUACGCUCU | -1.99 ± 0.24 | -1.61 ± 0.29
45 | GGGGAGCAAUAUUACGUUGU |  | -1.82 ± 0.28
46 | CCAAAGCAAUAUUACGUUGG | -4.54 ± 0.27 | -3.32 ± 0.29
47 | CAGUAGCAAUAUUACGUAAG | 0.131 ± 0.069 | -0.159 ± 0.086
48 | CGUAAGCAAUAUUACGGCGU | -2.28 ± 0.15 | -1.59 ± 0.23
